Target: T1, Bxb1 integrase (Mycobacterium phage Bxb1?) (UniProt Q9B086)
T1 sequence: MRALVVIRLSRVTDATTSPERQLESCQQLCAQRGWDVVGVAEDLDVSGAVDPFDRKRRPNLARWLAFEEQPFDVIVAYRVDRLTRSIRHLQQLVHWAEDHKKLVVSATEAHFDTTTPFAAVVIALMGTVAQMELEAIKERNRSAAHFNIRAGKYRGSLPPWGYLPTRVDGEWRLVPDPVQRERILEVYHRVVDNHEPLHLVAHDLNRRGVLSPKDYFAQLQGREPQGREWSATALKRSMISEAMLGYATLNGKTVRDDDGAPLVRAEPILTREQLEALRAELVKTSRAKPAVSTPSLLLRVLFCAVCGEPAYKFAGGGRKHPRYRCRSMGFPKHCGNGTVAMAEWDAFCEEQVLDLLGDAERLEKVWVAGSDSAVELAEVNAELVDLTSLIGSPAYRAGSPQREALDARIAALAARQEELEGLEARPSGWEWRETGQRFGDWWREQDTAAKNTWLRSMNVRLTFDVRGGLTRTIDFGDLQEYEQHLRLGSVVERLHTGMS
Assay: cell_activity
Conditions: in vivo mouse liver, 1E11 vg Bxb1 AdV, 1E12 vg AAV; about 7% at 3E10 vg

AttP GT/GA dual site in Rosa26 of AttP mice with 38 bp GT AttB AAV donor
activity (% integration): 11

From patent publication US20250057980
